Measurements taken from patent US20240132625A1.
pKd: −log10 of the molar value.

Experiments:
[1] = biological target: HER2 ectodomain (biotinylated Her2/ERBB2, Sino Biological) (human) (UniProt P04626); assay: BLI, […], antibody 6.25-50 nM, 1:1 fit
[2] = biological target: HER2 ectodomain (biotinylated Her2/ERBB2, Sino Biological) (human) (UniProt P04626); assay: BLI, HER2 ectodomain on tip; effective KD
[3] = biological target: Receptor-binding domain of the SARS-CoV-2 spike protein (biotinylated, Acrobio system) (SARS-CoV-2) (UniProt P0DTC2); assay: BLI, antigen on streptavidin tip; below the instrument's limit
[4] = biological target: Receptor-binding domain of the SARS-CoV-2 spike protein (biotinylated, Acrobio system) (SARS-CoV-2) (UniProt P0DTC2); assay: BLI, antigen on streptavidin tip
[5] = biological target: Receptor-binding domain of the SARS-CoV-2 spike protein (biotinylated, Acrobio system) (SARS-CoV-2) (UniProt P0DTC2); assay: BLI, antigen on streptavidin tip, 1:1 fit
[6] = biological target: HER2 ectodomain (biotinylated Her2/ERBB2, Sino Biological) (human) (UniProt P04626); assay: BLI, HER2 ectodomain immobilized on the sensor tip, antibody in half dilution from 500 nM, 1:1 fit
[7] = biological target: CD20 immobilized on a sensor tip (UniProt P11836); assay: BLI, CD20 on tip; effective KD
[8] = biological target: CD20 immobilized on a sensor tip (UniProt P11836); assay: BLI, […], antibody 6.25-50.0 nM, 1:1 fit
[9] = biological target: CD20 immobilized on a sensor tip (UniProt P11836); assay: BLI, human CD20 immobilized on the sensor tip, antibody in half dilution from 50 nM, 1:1 fit
[10] = biological target: CD20 immobilized on a sensor tip (UniProt P11836); assay: BLI, CD20 on tip
[11] = biological target: HER2 ectodomain (biotinylated Her2/ERBB2, Sino Biological) (human) (UniProt P04626); assay: BLI, antigen on streptavidin tip, 1:1 fit
[12] = biological target: HER2 ectodomain (biotinylated Her2/ERBB2, Sino Biological) (human) (UniProt P04626); assay: BLI, HER2 ectodomain on tip
[13] = biological target: HER2 ectodomain (biotinylated Her2/ERBB2, Sino Biological) (human) (UniProt P04626); assay: BLI, HER2 ectodomain immobilized on the sensor tip, antibody in half dilution from 250 nM, 1:1 fit
CD20 on SU-DHL5 cells = CD20 on SU-DHL5 cells (UniProt P11836); assay: flow cytometry on SU-DHL5 cells, muGFP signal, 10 nM antibody
[14] = biological target: HER2 ectodomain (biotinylated Her2/ERBB2, Sino Biological) (human) (UniProt P04626); assay: BLI, […], antibody 3.1-[…], 1:1 fit
[15] = biological target: HER2 ectodomain (biotinylated Her2/ERBB2, Sino Biological) (human) (UniProt P04626); assay: BLI, antigen on streptavidin tip; below the instrument's limit

Q: Which results are given for “Trastuzumab(N30A/H91A)-SDF-1α(8-67)^(L) (antibody)”?
A: koff [1]: < 1e-07 s⁻¹; kon [1]: 189000 M⁻¹ s⁻¹; pKd [2]: > 11.00

Q: With glCV30-SDF-1α(8-67)^(H) (antibody) as the substance, how does the pKd [3] read?
A: Its pKd is > 11.00.

Q: What about the fold increase of binding avidity over glCV30 [4] of the same substance?
A: Its fold increase of binding avidity over glCV30 is > 130 fold.

Q: And the kon [5]?
A: The kon was 770000 M⁻¹ s⁻¹.

Q: How did the pKd [6] turn out when “SLy1(254-316)^(H)-Trastuzumab(N30A/H91A/Y100A)/HetFc (antibody)” was run?
A: Its pKd is 6.43.

Q: With “Trastuzumab(N30A/H91A)-HomoCC^(H) (antibody)” as the substance, how does the pKd [2] read?
A: The pKd was > 11.00.

Q: With “SLy1(254-316)^(H)-Obinutuzumab(Y101L)/HetFc-SDF-1α(8-67)^(H) (antibody)” as the substance, how does the pKd [7] read?
A: Its pKd is 9.89.

Q: And the koff [8]?
A: Its koff is 2.3e-05 s⁻¹.

Q: What about the kon [8] of the same substance?
A: Its kon is 180000 M⁻¹ s⁻¹.

Q: For Obinutuzumab(Y101L) (antibody), which koff [9] is on record?
A: Its koff is 0.01 s⁻¹.

Q: And the kon [9]?
A: The kon was 330000 M⁻¹ s⁻¹.

Q: And the pKd [10]?
A: Its pKd is 7.52.

Q: What does the source list for Trastuzumab(N30A/H91A) (antibody)?
A: pKd [11]: 8.68; kon [11]: 190000 M⁻¹ s⁻¹

Q: Trastuzumab(N30A/H91A/Y100A) (antibody) was tested. Which pKd [12] did it give?
A: The pKd was 6.61.

Q: What does the source list for “SLy1(254-316)^(H)-Trastuzumab(N30A/H91A/Y100A)/HetFc-SDF-1α(8-67)^(H) (antibody)”?
A: pKd [13]: 9.10; koff [13]: 5.8e-05 s⁻¹; kon [13]: 71000 M⁻¹ s⁻¹; pKd [2]: > 9.10

Q: How did the percent bound to SU-DHL5 cells at 10 nM (CD20 on SU-DHL5 cells) turn out when “SLy1(254-316)^(H)-Obinutuzumab(F101L)/HetFc-SDF-1α(8-67)^(H) labeled with muGFP at the C-terminus of the light chain (antibody)” was run?
A: The percent bound to SU-DHL5 cells at 10 nM was 90%.

Q: For “Trastuzumab(N30A/H91A)-SDF-1α(8-67)^(H) (antibody)”, which kon [14] is on record?
A: Its kon is 310000 M⁻¹ s⁻¹.

Q: And the pKd [15]?
A: The pKd was > 11.00.

Q: And the kon [11]?
A: The kon was 290000 M⁻¹ s⁻¹.
